Measurements taken from the DeepSol protein solubility set.

Experiment: soluble on expression in E. coli; label from the status in PepcDB or PDB records

| Sequence | soluble on expression in E. coli |
| --- | --- |
| MNNNTTAPTYTLRGLQLIGWRDMQHALDYLFADGQLKQGTLVAINAEKMLTIEDNAEVRELINAAEFKYADGISVVRSVRKKYPQAQVSRVAGADLWEELMARAGKEGTPVFLVGGKPEVLAQTEAKLRNQWNVNIVGSQDGYFKPEQRQALFERIHASGAQIVTVAMGSPKQEIIMRDCRLVHPDALYMGVGGTYDVFTGHVKRAPKIWQTLGLEWLYRLLSQPSRIKRQLRLLRYLRWHYTGNL | soluble |
| MNNQLVISDYIFPIHQYGKMGTIHSVFERSFNLKVQDQLINVANFHNYLSSFGMFLPDQLFQEIFPYVQQGNKVKITENQLTFYSTVGVKTIQLTPAEVVSLNITHFKLEKDQLRLLRDRLLARNLERRIGLPLDERAKHIFKKMSQKQKVWTLSEWQEVTNYLIGRGKGLTPSGDDILVAYQTILFILADERAAALAATLSAANLSTTDVSKGYIASSAKGYVNSLLYQLLLDLENHRDNRVDENIDRIIQIGHSSGKDMSFGMLLALQSVELDEK | not soluble |
| MNNSEQLIALKESETAFLKYFNKADYELVDFSVVEKLDWKQLNHEDLQQMGERNFWQHEHQIYALRNDFTDQLLRYYSMYPTAATKVAYTGLIIRNNEAAVQVGLENYAPSLANVQQSLKLFIQFIQQQLRDNVHFVVLGHYQLLDALLDKSLQTPDILSMIEERNLSGLVTYLSTEHPIVQILKENTQQQLNVLEHYIPNDHPALVELKIWERWLHTQGYKDIHLDITAQPPRSYYTGLFIQCHFAENESRVLTGGYYKGSIEGFGLGLTL | soluble |
| MNPGGAEVSVVIPAWNAEATLGRALASVRAQTLAPRQVIVVNDGSSDATPEIAARMATKTFPVTVIDRTGRGSGPAAARNAGIAAAGEPFVAFLDADDVWLPDKLARQMAALRASPDAVLCCCDAQWVGEDAPARTAHPTIYEDRPIKGGAEAWKEILLDCYVGTPCVVARRAALIEAGGFDERLVVGEDQDLWIRLALQGPVIALPEVLVRYGLSADSHMARHRALAASLWLPHFEALVSGLGARLSAGERDAILRARLWRMARSVYLDGRKDLGLSLMARAVAHGLPRRARMVFLARARLRSALGRNGLEHHHHHH | not soluble |
| MNPKHFIAFSALFAATQAEALPVASVSPDTVTVSPSAPYTDTNGLLTDYGNAAASPWMKKLRSVAQGSGEAFRILQIGDSHTAGDFFTDALRKRLQKTWGDGGIGWVYPANVKGQRMAAVRYNGNWQSLNSRSAAADFPLGGILAQTGSGGSMTLTASDGKTGKQRVSLFAKPLLAEQTLTVNGNTVSANGGGWQVLDTGAALPLAIQTEMPWDIGFINIENPAGGITVSAMGINGAQLTQWSKWRADRMNDLAQTGADLVILSYGTNEAFNNNIDIADTEQKWLDTVRQIRDSLPAAGILIIGAPESLKNTLGVCGTRPVLLTEVQQMQRRVARQGQTMFWSWQNAMGGICSMKNWLNQGWAAKDGVHFSAQGYRRAAEMLADSLEELVRAAAIR | soluble |
| MNPLRSIQHNITTPPISGGQPLDAVGPQAQQSHPKRISPSQLSQSAHQALERLSANAEHQRLASLVRNALQDGTFQFQSSNHTQVTYKASICLPADTDTVRTDHLINNELTVQARLNDQSEYDIVSAHLHGSSKAISFDVPSPPPAHGSASSVLSERTHLGMSSVLSQDAVDSSSLETPLVSSPDHSRPPSQPKPVHIGSVRRDSGSLVSDNPVVQALLSFVQADQAFPPQAASIAGVQLEMRSRRDIEQALEELKGAFTVEKAQLMSGGSSSERVDEDVNADIHIPLLLKAIERGAGAFGPGALIEIADGGQISAKAFLASCAPTITSNDDVLSEFINQKLKGDDDLQVRLGAQELLHVATKKEFQLGGLAGSIGVSSILGSAWELGASELLKNAIFGKNFSPSQYALQLAGIDSVPPFIIEAMDSFCVLVIIKGMKGELWSMKDLLPKALKAGAISSAMSFPNNVLQYAGFKSRVADLAANSITTEAAIFGAASGIPPEVKESEELMRAGLFQSMKDGVMAHPGEGMDTKETIERMTRHALDIAPGESTAVKSMGLAAIVGMIPLIASSKATGLVSEQILRIFRNAVFNPIEAIALNALALGGRVNVPGLFDSDNAKHARVAQTILARASQHMEAGDREISAEELHQMLAPRSEFLRHVGSAIVNGMNASFEAIPALVRKLGYGEAPLAERIPYQDLAVPDTSRQPAP | not soluble |
| MNPNFTTEHTWQGRHDPEDGQAGRRVHHIACPIQVGELANQEPGVALIGFECDAGVERNKGRTGAKHAPSLIKQALANLAWHHPIPIYDLGNIRCEGDELEQAQQECAQVIQQALPHARAIVLGGGHEIAWATFQGLAQHFLATGVKQPRIGIINFDAHFDLRTFESELAPVRPSSGTPFNQIHHFCQQQGWDFHYACLGVSRASNTPALFERADKLGVWYVEDKAFSPLSLKDHLTQLQHFIDDCDYLYLTIDLDVFPAASAPGVSAPAARGVSLEALAPYFDRILHYKNKLMIADIAEYNPSFDIDQHTARLAARLCWDIANAMAEQVQSIRHP | soluble |
| MNPQRDCKEFKVETRTITEVQSEPIYPTGRCGPVLARIPVVISQSKVHIDIESRVCFDHSVFDIYSHSRNIYLTQCKLLNMGNKRYGKIYLNGYVSENIAYAAYCMKGREYGNKKSTSADMLYKTLKVPFECVAKIEYCTSPVFKTSNGFIPVALPDKENSPEDSYFSGERLFCELDEASICESNVERKKLFSRINAGEDSFDTLTEYLVLSITFTLLQWQQVRIPGYFPNNPHSQI | not soluble |
| MNQIDLNVTCRYAGVFHVEKNGRYSISRTEAADLCQAFNSTLPTMDQMKLALSKGFETCRYGFIEGNVVIPRIHPNAICAANHTGVYILVTSNTSHYDTYCFNASAPPEEDCTSVTDLPNSFDGPVTITIVNRDGTRYSKKGEYRTHQEDIDAS | soluble |
| MNQLQAEINAANAVFPVSDSTKIPKVSQKLFGLLGDGFFPQLHPKGLKIADNIAALFDQYNLKSIALKNFDLNLERKNDIVIQGKVCYSFSIK | not soluble |
| MNQNQNKKTKIVALSMMNSQTSGNPSRGTTKFESYTFDYWQYIDTLVYWGGSSGEGIIVTPSADVIDEAHSNGVPVLGTIFLPPKEYGGKVDWVKTMLKKDEQGQYPFASQMVKVAKTYGFEGWFINEETQGLNADDAANMKALIQQVKKEDSSLQIMWYDAMTKDGKVDWQNQLNDQNATFVQDKAADAMFLNFWWTQNNLADQKLLEKSNLYAKNHNIDPYNIYAGIDVQAKDVQTPVKWNLLEKGNQATQTSIGLYAASATYTNASNWDDFQNRESAFWVNQKADPRQVDHSVNESWTGLSKYVLEKSAISGNEFNTNFNLGNGYNYFKAGQKISEMDWNDRSLAGILPSYRWIIDNEGKNKISPSFDFANAYNGGNSLKFMAEHLDAGKSSNITLFASDLKIAMGAKFSVSMRSDQALKVSAILELANGQKVSIAGDKSLTENWSKLEHHHHHH | soluble |
| MNQQEFQLREITYQDIKDLLAIEREVYAGELPWTMSAFMAELGSKAPHLYLLAAINGKTVGFIGCRIQGTDAHITNVAVHTAYQGLGLGRSLIEETRIFAKKNRCETLSLEVRMSNVKAQRLYRKIGFVSQTVKKGYYDENNEDALEMIIDLKEE | not soluble |
| MNRFFILSGCSGGGKSTLLAELARRGFATVEEPGRRIVIEETRNGGTALPWIDMQAFARRAIAMALEDRRVTPKEGLVFFDRGLIDAASALHHISGDRFVNTLRDTHRYNSLVFLTPPWPEIYQSDDERKHGFDAAVEEYERLVRDYEGLGYDIVVLPKSAVAERADLILTRIGLEHHHHHH | not soluble |
| MNRIAFDAKRITSNATGLGNYSRFVVEALAAFHSEHRYYLCSPGKGNPALYSALQQREGIEWLLPEGRRMGGTFWRNFGVVPRLQKEGIDLFHGLSHELPLGIYGKGIATVVTIHDLIFIRYPHYYKPVDRLLYRLKYGHAARCADRVIAISEQTKRDVMEFFHVPADRIDVVYQGCSPAFGQATEEDESRARERYALPERYLLYVGSIETRKNLRLAVEALAHCRDRHIRLVAVGKRTPYCAEVQQCAERSGVADRLVMLHDVPFAFLPGIYRGAEVFVYPSRFEGFGIPIVEALASGVPVVAATGSCLEEAGGPSSLYTDPDDAEMMASMLDSILSDSSLREKMIADGRTYIERFSPEAVARSLMHVYDKVL | not soluble |
| MNRKKLAAYGQEFEDDDEEGSSVSKKPTQIHEEIATDEKGKRRFHGAFTGGFSAGYWNTVGSKQGWVPQVFSSSRNERGEQIKQRAEDFMDAEDLGEYGIGNRSIKQTAAFGEGAGQKRKMAWERDTTSISTITQMFEDVVKPVSNSIGVRMLRSMGWREGRGIGLANVKQKQKRGGESSEAQFDREQASKVAPAYEFSNEDALVKQLTPLTGTHGIGYQGLRKTTVLNESYGRTTLALKSGKKNSKGIKGQAFGVGAFEEEDESVYSNYDLSQFDFSLDVAGASEESNLKTQKLVTAFELQPKRLNPRKFYAPPRVPPNFRGDHRPIPMDISKLPQMMKNDVKHMNAEQRAKFLGEDRVNALEIGGKSSKKPTERRSRWDIKANEVEKRDNERGGGEAEEDRDRRQRNRIEFPDEPMRQARFKEFLHYIRRGLPYPQPTDLTVWEWEWEKKEFESKLTSDERGMLPEVQSRAQPLAKTAIAAPIHEMMASKFVKEAGGDLKVGTKDEDKLAAVKMEMFGEKTRQSFDWYPDNLLAKRFNVPHPYPGSDTVGVPALQKTDWKRKDRLADIGGVSATLGLPNTANEIEMRERLLKSRAQRGAEEKKRNQSDDDDEKEYDDKDSDEEEENEAEPNNQKVDKAPKSFFDFIFGDGDGADSDESNSEDEEAEEKERQEILKKREEDLKRRREIVEKKEEENRKRVEKELKELENRDLLRVSKQQEDDDIQIIDETSASSFGPALPPSSKPVLSKTEVLKLLEKNMKKKKKDKKEKEKKKKSKKSKKSKKEKKTKRKHSSSSADDSGDNSDGWEEKK | not soluble |
| MNRMSLAALLSCLPLVAWADNPVKLDTPVSGWRAGDGSAANYRQVVNYPASSVNVAADQATTARIRGAIESQPKDRPATLVVNGVSMPLKVDADGSFDRPFAFPSGSNSVEVRNAAGQSRRVQFYHGGGGGEVPAKLRVLLSWDSDNTDLDLHLVTPDGDHVWYGNRSLANGATLDVDVTTGYGPEIIATPTPQKGPYLVYVNYFGGGYGSSEDGAEQAAQDLTTARITLVTEEGTPNEKQETFLVPMRKPGELTLVKRFSYP | not soluble |
| MNRQELITEALKARDMAYAPYSKFQVGAALLTKDGKVYRGCNIENAAYSMCNCAERTALFKAVSEGDTEFQMLAVAADTPGPVSPCGACRQVISELCTKDVIVVLTNLQGQIKEMTVEELLPGAFSSEDLHDERKL | soluble |
| MNRSIDSIIAKKVSHDVGILIFQYLNDIEPLIQQSLTAAKLKDFYGLKGKYSKGRFVCPFHHGADNPTSLSMNDNKRCFHCNACGKSGTYLEFIMYMQNISGRNSYNDAKIFAANHFTKLNLGFNSIADFEQKLKDKILERYRKTNSLRYTDYYDIWLLPERYFSSKEQSQVRQYQEEQQTKPSLEVSLSNSTNKPGFILESLDLEMTIRHLKAQNIIVNGITDYDEAVQVAKNSKLIKDFTKNADKLNSVDKLTDYMSKKYNIDIDTALKYGLIFFDKSSQHQLYYSDFFMLNNRVLFPVRDHETGIIVGYQCRRTDLSAPRHYKYLNITDYQDNLITNENGTTYRDFVPFKVGNFLFNLYELKGKCINTLWITEGIADAIKLSSMGYDAVSLGQANLTDYQIYLIDKYFGKDVTLNLFFDNDDNKIGQNKSIAAAYRLWQFGFRNIRIINTFKEMGKDITDCSVKLHDDDMLRLFINHWEKQAYSFAPASNEDLSALLKTGLYSESEILFIDPRDVERIISFGEMLNKYLDFKNMTYQQLKLLKKLCSFKEDEIKILLSLSTKDFLDVQNTNEQSCHKEQL | not soluble |
